According to publication PMC6828814, “A cryptic hydrophobic pocket in the polo-box domain of the polo-like kinase PLK1 regulates substrate recognition and mitotic chromosome segregation” (Scientific Reports, 2019):
One block for each molecule: values may come before it.

Assays:
[1] = target: T1, PLK1 (polo-like kinase 1) polo-box domain (Homo sapiens, UniProt P53350); assay: crystal structure (soaking) and competitive fluorescence polarisation with TAMRA-labelled PBIP1 phosphopeptide; assay type: binding
T1 construct: polo-box domain (PBD), recombinant
T1 sequence (P53350 367-603 limits assumed): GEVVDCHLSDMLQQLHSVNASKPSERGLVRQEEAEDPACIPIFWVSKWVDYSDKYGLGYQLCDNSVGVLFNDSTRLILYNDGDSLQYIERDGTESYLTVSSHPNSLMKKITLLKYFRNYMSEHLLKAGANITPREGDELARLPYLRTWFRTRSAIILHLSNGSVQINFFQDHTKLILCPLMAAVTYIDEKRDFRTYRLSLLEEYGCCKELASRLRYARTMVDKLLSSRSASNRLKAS

PLK1 [2] = target: PLK1 (UniProt P53350); assay: GFP-Trap co-IP, anti-NEDD1 immunoblot; conditions: reference: GFP-PLK1Wt
PLK1 [3] = target: PLK1 (UniProt P53350); assay: V5 co-IP, immunoblot; conditions: reference: PBIP1Wt-V5; sites T78

IC50 [1]: 115 ± 24 µM
Molecule: O=C(Nc1cccc(C(C(=O)O)C(=O)O)c1)c1ccc(C(=O)c2cccc(I)c2)s1 [Polotyrin]

other: IP band intensity normalised to input (PLK1 [2]): lost; reference 0.2
Molecule: NEDD1 (from UniProt Q8NHV4) GFP-PLK1AM (H538A/K540M)

other: IP band intensity normalised to input (PLK1 [3]): weaker; reference 2.5
Molecule: PBIP1 (Polo-Box Interacting Protein 1) (from UniProt Q71F23) PBIP1-T78A-V5
